Experimental data: IntAct's records for PubMed 27599036

B1: Ferrochelatase, mitochondrial (Homo sapiens), P22830 (parent)
chain: MRSLGANMAAALRAAGVLLRDPLASSSWRVCQPWRWKSGAAAAAVTTETAQHAQGAKPQVQPQKRKPKTGILMLNMGGPETLGDVHDFLLRLFLDRDLMTLPIQNKLAPFIAKRRTPKIQEQYRRIGGGSPIKIWTSKQGEGMVKLLDELSPNTAPHKYYIGFRYVHPLTEEAIEEMERDGLERAIAFTQYPQYSCSTTGSSLNAIYRYYNQVGRKPTMKWSTIDRWPTHHLLIQCFADHILKELDHFPLEKRSEVVILFSAHSLPMSVVNRGDPYPQEVSATVQKVMERLEYCNPYRLVWQSKVGPMPWLGPQTDESIKGLCERGRKNILLVPIAFTSDHIETLYELDIEYSQVLAKECGVENIRRAESLNGNPLFSKALADLVHSHIQSNELCSKQLTLSCPLCVNPVCRETKSFFTSQQL

Variants of: B1
Details: with pgrc1_human PGRMC1, O00264
Chain of pgrc1_human PGRMC1, O00264 (O00264 whole entry): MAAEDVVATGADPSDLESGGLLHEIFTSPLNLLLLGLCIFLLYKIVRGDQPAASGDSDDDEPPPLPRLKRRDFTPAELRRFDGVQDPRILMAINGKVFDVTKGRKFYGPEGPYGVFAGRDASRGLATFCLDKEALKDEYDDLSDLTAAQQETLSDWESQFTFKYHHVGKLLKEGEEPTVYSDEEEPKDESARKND

Variant	effect of a mutation on the interaction
MRSLGANMAAALRAAGVLLRDPLASSSWRVCQPWRWKSGAAAAAVTTETAQHAQGAKPQVQPQKRKPKTGILMLNMGGPETLGDVHDFLLRLFLDRDLMTLPIQNKLAPFIAKRRTPKIQEQYRRIGGGSPIKIWTSKQGEGMVKLLDELSPNTAPHKYYIGFRYVHPLTEEAIEEMERDGLERAIAFTQYPQYSCSTTGSSLNAIYRYYNQVGRKPTMKWSTIDRWPTHHLLIQCFADHILKELDHFPLEKRSEVVILFSAHSLPMSVVNRGDPYPQEVSATVQKVMERLEYCNPYRLVWQSKVGPMPWLGPQTDESIKGLCERGRKNILLVPIAFTSDHIKTLYELDIEYSQVLAKECGVENIRRAESLNGNPLFSKALADLVHSHIQSNELCSKQLTLSCPLCVNPVCRETKSFFTSQQL [E343K]	disrupting interaction strength
MRSLGANMAAALRAAGVLLRDPLASSSWRVCQPWRWKSGAAAAAVTTETAQHAQGAKPQVQPQKRKPKTGILMLNMGGPETLGDVHDFLLRLFLDRDLMTLPIQNKLAPAIAKRRTPKIQEQYRRIGGGSPIKIWTSKQGEGMVKLLDELSPNTAPHKYYIGFRYVHPLTEEAIEEMERDGLERAIAFTQYPQYSCSTTGSSLNAIYRYYNQVGRKPTMKWSTIDRWPTHHLLIQCFADHILKELDHFPLEKRSEVVILFSAHSLPMSVVNRGDPYPQEVSATVQKVMERLEYCNPYRLVWQSKVGPMPWLGPQTDESIKGLCERGRKNILLVPIAFTSDHIETLYELDIEYSQVLAKECGVENIRRAESLNGNPLFSKALADLVHSHIQSNELCSKQLTLSCPLCVNPVCRETKSFFTSQQL [F110A]	increasing interaction strength
